# B1: NF-kappa-B inhibitor alpha (Gallus gallus (Chicken)), Q91974 (parent)
# chain: MLSAHRPAEPPAVEGCEPPRKERQGGLLPPDDRHDSGLDSMKEEEYRQLVRELEDIRLQPREPPARPHAWAQQLTEDGDTFLHLAIIHEEKALSLEVIRQAAGDAAFLNFQNNLSQTPLHLAVITDQAEIAEHLLKAGCDLDVRDFRGNTPLHIACQQGSLRSVSVLTQHCQPHHLLAVLQATNYNGHTCLHLASIQGYLAVVEYLLSLGADVNAQEPCNGRTALHLAVDLQNSDLVSLLVKHGPDVNKVTYQGYSPYQLTWGRDNASIQEQLKLLTTADLQILPESEDEESSESEPEFTEDELMYDDCCIGGRQLTF
# B2: Ankyrin repeat domain-containing protein 49 (Homo sapiens), Q8WVL7 (parent)
# chain: MEKEKGNDDGIPDQENSLDFSEHFNQLELLETHGHLIPTGTQSLWVGNSDEDEEQDDKNEEWYRLQEKKMEKDPSRLLLWAAEKNRLTTVRRLLSEKATHVNTRDEDEYTPLHRAAYSGHLDIVQELIAQGADVHAVTVDGWTPLHSACKWNNTRVASFLLQHDADINAQTKGLLTPLHLAAGNRDSKDTLELLLMNRYVKPGLKNNLEETAFDIARRTSIYHYLFEIVEGCTNSSPQS
# B3: Cyclin-dependent kinase inhibitor 2A (Homo sapiens), P42771 (parent)
# chain: MEPAAGSSMEPSADWLATAAARGRVEEVRALLEAGALPNAPNSYGRRPIQVMMMGSARVAELLLLHGAEPNCADPATLTRPVHDAAREGFLDTLVVLHRAGARLDVRDAWGRLPVDLAEELGHRDVARYLRAAAGGTRGSNHARIDAAEGPSDIPD
# Variants of: B1
# Settings: with ran_human RAN
row,Variant,effect of a mutation on the interaction
1,MLSAHRPAEPPAVEGCEPPRKERQGGLLPPDDRHDSGLDSMKEEEYRQLVRELEDIRLQPREPPARPHAWAQQLTEDGDTFLHLAIIHEEKALSLEVIRQAAGDAAFLNFQNNLSQTPLHLAVATDQAEIAEHLLKAGCDLDVRDFRGNTPLHIACQQGSLRSVSVLTQHCQPHHLLAVLQATNYNGHTCLHLASIQGYLAVVEYLLSLGADVNAQEPCNGRTALHLAVDLQNSDLVSLLVKHGPDVNKVTYQGYSPYQLTWGRDNASIQEQLKLLTTADLQILPESEDEESSESEPEFTEDELMYDDCCIGGRQLTF [I124A],decreasing interaction strength
2,MLSAHRPAEPPAVEGCEPPRKERQGGLLPPDDRHDSGLDSMKEEEYRQLVRELEDIRLQPREPPARPHAWAQQLTEDGDTFLHLAIIHEEKALSLEVIRQAAGDAAFLNFQNNLSQTPLHLAVETDQAEIAEHLLKAGCDLDVRDFRGNTPLHIACQQGSLRSVSVLTQHCQPHHLLAVLQATNYNGHTCLHLASIQGYLAVVEYLLSLGADVNAQEPCNGRTALHLAVDLQNSDLVSLLVKHGPDVNKVTYQGYSPYQLTWGRDNASIQEQLKLLTTADLQILPESEDEESSESEPEFTEDELMYDDCCIGGRQLTF [I124E],decreasing interaction strength
3,MLSAHRPAEPPAVEGCEPPRKERQGGLLPPDDRHDSGLDSMKEEEYRQLVRELEDIRLQPREPPARPHAWAQQLTEDGDTFLHLAIIHEEKALSLEVIRQAAGDAAFLNFQNNLSQTPLHLAVKTDQAEIAEHLLKAGCDLDVRDFRGNTPLHIACQQGSLRSVSVLTQHCQPHHLLAVLQATNYNGHTCLHLASIQGYLAVVEYLLSLGADVNAQEPCNGRTALHLAVDLQNSDLVSLLVKHGPDVNKVTYQGYSPYQLTWGRDNASIQEQLKLLTTADLQILPESEDEESSESEPEFTEDELMYDDCCIGGRQLTF [I124K],decreasing interaction strength
4,MLSAHRPAEPPAVEGCEPPRKERQGGLLPPDDRHDSGLDSMKEEEYRQLVRELEDIRLQPREPPARPHAWAQQLTEDGDTFLHLAIIHEEKALSLEVIRQAAGDAAFLNFQNNLSQTPLHLAVQTDQAEIAEHLLKAGCDLDVRDFRGNTPLHIACQQGSLRSVSVLTQHCQPHHLLAVLQATNYNGHTCLHLASIQGYLAVVEYLLSLGADVNAQEPCNGRTALHLAVDLQNSDLVSLLVKHGPDVNKVTYQGYSPYQLTWGRDNASIQEQLKLLTTADLQILPESEDEESSESEPEFTEDELMYDDCCIGGRQLTF [I124Q],decreasing interaction strength
5,MLSAHRPAEPPAVEGCEPPRKERQGGLLPPDDRHDSGLDSMKEEEYRQLVRELEDIRLQPREPPARPHAWAQQLTEDGDTFLHLAIIHEEKALSLEVIRQAAGDAAFLNFQNNLSQTPLHLAVRTDQAEIAEHLLKAGCDLDVRDFRGNTPLHIACQQGSLRSVSVLTQHCQPHHLLAVLQATNYNGHTCLHLASIQGYLAVVEYLLSLGADVNAQEPCNGRTALHLAVDLQNSDLVSLLVKHGPDVNKVTYQGYSPYQLTWGRDNASIQEQLKLLTTADLQILPESEDEESSESEPEFTEDELMYDDCCIGGRQLTF [I124R],decreasing interaction strength

# Variants of: B2
# Settings: with ran_human RAN
row,Variant,effect of a mutation on the interaction
1,MEKEKGNDDGIPDQENSLDFSEHFNQLELLETHGHLIPTGTQSLWVGNSDEDEEQDDKNEEWYRLQEKKMEKDPSRLLLWAAEKNRLTTVRRLLSEKATHVNTRDECEYTPLHRAAYSGHLDIVQELIAQGADVHAVTVDGWTPLHSACCWNNTRVASFLLQHDADINAQTKGLLTPLHLAACNRDSKDTLELLLMNRYVKPGLKNNLEETAFDIARRTSIYHYLFEIVEGCTNSSPQS [D107C;K150C;G183C],increasing interaction strength
2,MEKEKGNDDGIPDQENSLDFSEHFNQLELLETHGHLIPTGTQSLWVGNSDEDEEQDDKNEEWYRLQEKKMEKDPSRLLLWAAEKNRLTTVRRLLSEKATHVNTRDEDEYTPLHRAAYSGHLDIVQELIAQGADVHAVTVDGWTPLHSACKWNNTRVASFLLQHDADINAQTKGLLTPLHLAACNRDSKDTLELLLMNRYVKPGLKNNLEETAFDIARRTSIYHYLFEIVEGCTNSSPQS [G183C],increasing interaction strength
3,MEKEKGNDDGIPDQENSLDFSEHFNQLELLETHGHLIPTGTQSLWVGNSDEDEEQDDKNEEWYRLQEKKMEKDPSRLLLWAAEKNRLTTVRRLLSEKATHVNTRDECEYTPLHRAAYSGHLDIVQELIAQGADVHAVTVDGWTPLHSACCWNNTRVASFLLQHDADINAQTKGLLTPLHLAAGNRDSKDTLELLLMNRYVKPGLKNNLEETAFDIARRTSIYHYLFEIVEGCTNSSPQS [D107C;K150C],increasing interaction strength
4,MEKEKGNDDGIPDQENSLDFSEHFNQLELLETHGHLIPTGTQSLWVGNSDEDEEQDDKNEEWYRLQEKKMEKDPSRLLLWAAEKNRLTTVRRLLSEKATHVNTRDEIEYTPLHRAAYSGHLDIVQELIAQGADVHAVTVDGWTPLHSACIWNNTRVASFLLQHDADINAQTKGLLTPLHLAAGNRDSKDTLELLLMNRYVKPGLKNNLEETAFDIARRTSIYHYLFEIVEGCTNSSPQS [D107I;K150I],increasing interaction strength
5,MEKEKGNDDGIPDQENSLDFSEHFNQLELLETHGHLIPTGTQSLWVGNSDEDEEQDDKNEEWYRLQEKKMEKDPSRLLLWAAEKNRLTTVRRLLSEKATHVNTRDEDEYTPLHRAAYSGHLDIVQELIAQGADVHAVTVDGWTPLHSACIWNNTRVASFLLQHDADINAQTKGLLTPLHLAAGNRDSKDTLELLLMNRYVKPGLKNNLEETAFDIARRTSIYHYLFEIVEGCTNSSPQS [K150I],increasing interaction strength

# Variants of: B3
# Settings: with ran_human RAN
row,Variant,effect of a mutation on the interaction
1,M53I,disrupting interaction strength
2,R87P,disrupting interaction strength

# Variants of: B3
# Settings: with cdk4_human CDK4, P11802
# Chain of cdk4_human CDK4, P11802 (P11802 whole entry): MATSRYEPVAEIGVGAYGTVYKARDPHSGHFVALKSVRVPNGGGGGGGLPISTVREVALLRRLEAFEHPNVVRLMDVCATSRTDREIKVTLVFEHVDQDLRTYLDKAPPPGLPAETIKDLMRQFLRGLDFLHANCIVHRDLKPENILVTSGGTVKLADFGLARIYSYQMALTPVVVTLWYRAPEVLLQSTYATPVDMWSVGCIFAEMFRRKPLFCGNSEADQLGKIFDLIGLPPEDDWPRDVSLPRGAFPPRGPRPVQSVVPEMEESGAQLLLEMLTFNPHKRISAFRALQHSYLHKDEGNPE
row,Variant,effect of a mutation on the interaction
1,M53I,increasing interaction strength
2,R87P,increasing interaction strength

# Variants of: B3
# Settings: with ccnd1_human CCND1, P24385
# Chain of ccnd1_human CCND1, P24385 (P24385 whole entry): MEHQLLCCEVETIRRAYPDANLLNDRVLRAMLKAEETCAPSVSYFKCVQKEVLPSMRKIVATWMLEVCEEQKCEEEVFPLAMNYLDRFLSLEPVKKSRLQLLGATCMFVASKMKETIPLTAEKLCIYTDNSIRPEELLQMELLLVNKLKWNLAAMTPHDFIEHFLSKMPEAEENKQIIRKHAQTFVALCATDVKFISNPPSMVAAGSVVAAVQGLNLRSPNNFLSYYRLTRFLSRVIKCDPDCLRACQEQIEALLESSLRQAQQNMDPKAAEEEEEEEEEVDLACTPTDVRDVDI
row,Variant,effect of a mutation on the interaction
1,M53I,increasing interaction strength
2,R87P,disrupting interaction strength

# Variants of: B3
# Settings: with cdk6_human CDK6, Q00534
# Chain of cdk6_human CDK6, Q00534 (Q00534 whole entry): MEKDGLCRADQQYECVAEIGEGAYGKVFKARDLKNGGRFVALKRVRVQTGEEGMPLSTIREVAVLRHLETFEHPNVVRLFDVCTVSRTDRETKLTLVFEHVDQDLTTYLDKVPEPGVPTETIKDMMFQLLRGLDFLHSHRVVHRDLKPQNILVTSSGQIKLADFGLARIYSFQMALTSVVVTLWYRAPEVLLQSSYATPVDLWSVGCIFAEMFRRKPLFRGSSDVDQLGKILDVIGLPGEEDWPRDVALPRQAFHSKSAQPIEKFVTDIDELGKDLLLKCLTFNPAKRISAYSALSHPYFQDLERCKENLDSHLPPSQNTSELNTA
row,Variant,effect of a mutation on the interaction
1,M53I,increasing interaction strength
2,R87P,increasing interaction strength

# Variants of: B3
# Settings: with ran_human RAN
# Remark: another data set of the same source
row,Variant,effect of a mutation on the interaction
1,M53I,increasing interaction strength
2,R87P,increasing interaction strength

# Variants of: B3
# Settings: with cdk4_human CDK4, P11802
# Remark: another data set of the same source
row,Variant,effect of a mutation on the interaction
1,R87P,decreasing interaction strength

# Variants of: B3
# Settings: with cdk6_human CDK6, Q00534
# Remark: another data set of the same source
row,Variant,effect of a mutation on the interaction
1,R87P,decreasing interaction strength

# Reference: IntAct's records for PubMed 24855949
